In publication doi:10.1101/2023.04.20.537738 (bioRxiv, 2023):

Molecular target: SARS-CoV-2 HexaPro Spike (SARS-CoV-2, WA-1 / Wuhan-Hu-1 …, UniProt P0DTC2, stabilised, N-linked glycans (built in the model))
Assay: cryo-EM structure

B1: STI-9167 Fab (therapeutically-modified version of FG-10A3) (Fab, V domains shown)
VH: QVQLVESGGGVVQPGRSLRLSCAASGFTFSSYGMNWVRQAPGKGLEWVAIIWYYGNNKYYVDSVKGRFTISRDNSKNTLYLQMNSLRAEDTAVYYCARKDYSKTYYGYYFDYWGQGTLVTVSS
VL: DIQMTQSPSSLSASVGDRVTITCRASQSIHSFLNWYQQKPGKPPNLLIYAASSLQSGLPSRFSGSGSGTDFTLTISSLQPEDFATYYCQQSYITPPTFGQGTKVEIK
  binding result: binds
